Patent publication US20190382484A1 (Chugai, published 2019)
Changes are numbered by the printed parent chain. Values belong to the binder of their own block, whether it stands above or below them.

Assays:
[1] = target: T1, antibody-half molecule A1 with PF1H / PF1L-k0 (PF1H-DA303v2/PF1L-k0); assay: SPR (Biacore T200), about 50 RU of half molecule A captured via biotinylated antigen peptide, half molecule B as analyte at 2.5 mg/mL, 25 C
Protocol: (§1) The interaction between the obtained antibody-half molecules was analyzed using Biacore (registered trademark) T200. Biotin CAPture Kit, Series S (GE Healthcare) was used for the measurement, and HBS-EP+10X (GE Healthcare) diluted 1/10th was used as a running buffer. The measurement temperature was 25° C. For the sensor chip, Series S Sensor Chip CAP (GE Healthcare) onto which previously-biotinylated antigen peptides were allowed to interact and thereby immobilized was used. These chips were allowed to capture approximately 50 RU of the antibody-half molecule A of interest and then interact with the antibody-half molecule B of interest diluted with the running buffer at 2.5 mg/mL for 180 seconds at a flow rate of 30 μL/min, and measurement was carried out. The molar binding ratio was calculated based on the following Formula 2. The antibody-half molecule A captured on the chip was washed as described in the instructions attached to the kit, and the chip was regenerated and reused.
(§2) At this time, for the antibody-half molecules to be captured, PF1H (SEQ ID NO: 22), which is the H chain variable region portion of the anti-human IL6 receptor antibody described in WO 2009/041621, was used as the H chain variable region portion, PF1L (SEQ ID NO: 23), which is the L chain variable region portion of the anti-human IL6 receptor antibody described in WO 2009/041621, was used as the L chain variable region portion, and k0 was used as the L chain constant region portion. In addition, for the antibody-half molecules used as analytes, IC17H (SEQ ID NO: 24), which is the anti-KLH antibody described in WO 2015/174439, was used as the H chain variable region, IC17L (SEQ ID NO: 25), which is the anti-KLH antibody described in WO 2015/174439, was used as the L chain variable region, and k0 was used as the L chain constant region.

[2] = target: T1, antibody-half molecule A1 with PF1H / …; assay: SPR (Biacore T200), about 50 RU of half molecule A captured via biotinylated antigen peptide, half molecule B as analyte at 2.5 mg/mL, 25 C (Example 10)
Protocol: as §1
(§3) At this time, for the antibody-half molecule to be captured, PF1H (SEQ ID NO: 22), which is the H chain variable region portion of the anti-human IL6 receptor antibody described in WO 2009/041621, was used as the H chain variable region portion, PF1L (SEQ ID NO: 23), which is the L chain variable region portion of the anti-human IL6 receptor antibody described in WO 2009/041621, was used as the L chain variable region portion, and k0 was used as the L chain constant region portion. In addition, for the antibody-half molecules used as analytes, IC17H (SEQ ID NO: 24), which is the anti-KLH antibody described in WO 2015/174439, was used as the H chain variable region, IC17L (SEQ ID NO: 25), which is the anti-KLH antibody described in WO 2015/174439, was used as the L chain variable region, and k0 was used as L chain constant region.

[3] = target: antibody-half molecule A5 with PF1H / PF1L-k0 (PF1H-DA430v2/PF1L-k0); assay: SPR (Biacore T200), about 50 RU of half molecule A captured via biotinylated antigen peptide, half molecule B as analyte at 2.5 mg/mL, 25 C
Protocol: as §1, §2

[4] = target: antibody-half molecule A2 with PF1H / PF1L-k0 (PF1H-DA402v2/PF1L-k0); assay: as above
Protocol: as §1, §2

[5] = target: antibody-half molecule A6 with PF1H / PF1L-k0 (PF1H-DA303v2.n.n/PF1L-k0); assay: SPR (Biacore T200), about 50 RU of half molecule A captured via biotinylated antigen peptide, half molecule B as analyte at 2.5 mg/mL, 25 C (Example 10)
Protocol: as §1, §3

[6] = target: antibody-half molecule A3 with PF1H / PF1L-k0 (PF1H-DA405v2/PF1L-k0); assay: SPR (Biacore T200), about 50 RU of half molecule A captured via biotinylated antigen peptide, half molecule B as analyte at 2.5 mg/mL, 25 C
Protocol: as §1, §2

[7] = target: antibody-half molecule A7 with PF1H / PF1L-k0 (PF1H-DA303v2.n.HATF.B/PF1L-k0); assay: SPR (Biacore T200), about 50 RU of half molecule A captured via biotinylated antigen peptide, half molecule B as analyte at 2.5 mg/mL, 25 C (Example 10)
Protocol: as §1, §3

[8] = target: antibody-half molecule A4 with PF1H / PF1L-k0 (PF1H-DA424v2/PF1L-k0); assay: SPR (Biacore T200), about 50 RU of half molecule A captured via biotinylated antigen peptide, half molecule B as analyte at 2.5 mg/mL, 25 C
Protocol: as §1, §2

[9] = target: the molecule itself; assay: size exclusion chromatography (G3000SWXL), absorbance 280 nm; self-association of the half molecule [panel b]
Protocol: The protein concentration of the antibody-half molecules was 0.25 mg/mL, and 80 μL was injected.
Evaluation of the molecular weight of the prepared antibody-half molecules A and B was carried out by size exclusion chromatography.

[10] = target: T2, FcγRIIIa extracellular domain (UniProt P08637 17-208, limits assumed); assay: SPR (Biacore T200), mixed half molecules captured via biotinylated antigen peptide on CAP chip, FcγR as analyte, 25 C
T2 construct: extracellular domain; Purified over HisTrap, so a His tag is implied
T2 sequence (P08637 17-208 limits assumed): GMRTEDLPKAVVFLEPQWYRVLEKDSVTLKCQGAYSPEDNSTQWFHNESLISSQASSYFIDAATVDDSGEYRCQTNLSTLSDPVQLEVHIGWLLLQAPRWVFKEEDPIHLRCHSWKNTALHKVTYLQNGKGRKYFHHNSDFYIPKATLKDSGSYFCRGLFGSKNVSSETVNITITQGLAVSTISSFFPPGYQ
Protocol: Interaction analysis of antibody-half molecules of interest and FcγR was performed using Biacore (registered trademark) T200. Biotin CAPture Kit, Series S (GE Healthcare) was used for the measurement, and HBS-EP+10X (GE Healthcare) diluted 1/10th was used as a running buffer. The measurement temperature was 25° C. For the sensor chip, Series S Sensor Chip CAP (GE Healthcare) onto which previously-biotinylated antigen peptides were allowed to interact and thereby immobilized was used. These chips were allowed to capture the antibody-half molecules of interest and then interact with FcγR diluted with the running buffer. The antigens and antibody-half molecules captured on the chip were washed as described in the instructions attached to the kit, and the chips were regenerated and reused.

B1: antibody-half molecule B1 with IC17H / IC17L-k0 (IC17H-DB220v2/IC17L-k0) (antibody, human IgG1, kappa)
heavy: QVQLQQSGPQLVRPGASVKISCKASGYSFTSYWMHWVNQRPGQGLEWIGMIDPSYSETRLNQKFKDKATLTVDKSSSTAYMQLSSPTSEDSAVYYCALYGNYFDYWGQGTTLTVSSASTKGPSVFPLAPSSKSTSGGTAALGCLVKDYFPEPVTVSWNSGALTSGVHTFPAVLQSSGLYSLSSVVTVPSSSLGTQTYICNVNHKPSNTKVDKKVEPKSCDKTHTSPPSPAPELLGGPSVFLFPPKPKDTLMISRTPEVTCVVVDVSHEEPEVKFNWYVDGVEVHNAKTKPREEQYNSTYRVVSVLTVLHQDWLNGKEYKCKVSNDALPMPIEETISKAKGQPREPQVYTLPPSRDELTKNQVSLTCLVKGFYPSDIAVEWESNGQPENNYKTTPPYLDSDGSFFLYSDLTVDKSRWQQGNVFSCSVMHEALHNHYTQESLSLSP
light: DIQMTQSSSSFSVSLGDRVTITCKASEDIYNRLAWYQQKPGNAPRLLISGATSLETGVPSRFSGSGSGKDYTLSITSLQTEDVATYYCQQYWSTPYTFGGGTKLEVKRTVAAPSVFIFPPSDEQLKSGTASVVCLLNNFYPREAKVQWKVDNALQSGNSQESVTEQDSKDSTYSLSSTLTLSKADYEKHKVYACEVTHQGLSSPVTKSFNRGEC
molar binding ratio [1]: 0.38
molar binding ratio [2]: 0.54

B2: antibody-half molecule B5 with IC17H / IC17L-k0 (IC17H-DB430v2/IC17L-k0) (antibody, human IgG1, kappa)
heavy: B1 heavy with E356L
light: B1 light
molar binding ratio [3]: 0.27

B6: antibody-half molecule B7 with IC17H / IC17L-k0 (IC17H-DB220v2.n.HATF.A/IC17L-k0) (antibody, human IgG1, kappa)
heavy: B1 heavy with S363H, F404A, E438K
light: B1 light
molar binding ratio [7]: 0.32

B8: EGLVH-wtIgG4C4/EGLVL-k0 (antibody, V domains shown)
VH: QDQLVQSGAEVKKPGASVKVSCKASGFNIKDTYIQWVRQAPGQGLEWMGRIDPLRKQTKYREKFEGRVTITADTSTNTAYMELSSLRSEDTAVYYCVRSGREFDYWGQGTLVTVSS
VL: DIQMTQSPSSLSASVGDRVTITCRASQDIHKYIAWYQQKPGQAPRLLIQYTSTLQPGVPSRFSGSGSGTDYTFTISSLQPEDIATYYCLQYEQLRTFGGGTKVEIKR
notes: also called control of the half molecule state of antibody
binding result [9]: no binding (tested: 0.25 mg/mL injected)

B9: MRAH-DA424v2/MRAL-k0 + MRAH-DB424v2/MRAL-k0 (antibody, human IgG1, kappa)
heavy 1: QVQLQESGPGLVRPSQTLSLTCTVSGYSITSDHAWSWVRQPPGRGLEWIGYISYSGITTYNPSLKSRVTMLRDTSKNQFSLRLSSVTAADTAVYYCARSLARTTAMDYWGQGSLVTVSSASTKGPSVFPLAPSSKSTSGGTAALGCLVKDYFPEPVTVSWNSGALTSGVHTFPAVLQSSGLYSLSSVVTVPSSSLGTQTYICNVNHKPSNTKVDKKVEPKSCDKTHTSPPSPAPEYQWGPMVFLFPPKPKDTLMISRTPEVTCVVVDVSDEEPEVKFNWYVDGVEVHNAKTKPREEQYNATYRVVSVLTVLHQDWLNGKEYKCKVSNKALPAPIEKTISKAKGQPREPQVYTLPPSRKNLTKNQVSLTCLVKGFYPSDIAVEWESNGQPENNYKTTPPYLDSDGSFFLYSDLTVDKSRWQQGNVFSCSVMHEALHNHYTQKSLSLSP
heavy 2: QVQLQESGPGLVRPSQTLSLTCTVSGYSITSDHAWSWVRQPPGRGLEWIGYISYSGITTYNPSLKSRVTMLRDTSKNQFSLRLSSVTAADTAVYYCARSLARTTAMDYWGQGSLVTVSSASTKGPSVFPLAPSSKSTSGGTAALGCLVKDYFPEPVTVSWNSGALTSGVHTFPAVLQSSGLYSLSSVVTVPSSSLGTQTYICNVNHKPSNTKVDKKVEPKSCDKTHTSPPSPAPELLGGPSVFLFPPKPKDTLMISRTPEVTCVVVDVSHEEPEVKFNWYVDGVEVHNAKTKPREEQYNSTYRVVSVLTVLHQDWLNGKEYKCKVSNDALPMPIEETISKAKGQPREPQVYTLPPSRDNLTKNQVSLTCLVKGFYPSDIAVEWESNGQPENNYKTTPPYLDSDGSFFLYSDLTVDKSRWQQGNVFSCSVMHEALHNHYTQESLSLSP
light: not shown
notes: Mixture of the two antibody-half molecules, which form a non-covalent heterodimer when captured on antigen; also called A4 + B4
Kd [10]: 10 nM

The remaining lines, values ahead:

molar binding ratio [4]: 0.63
B3: antibody-half molecule B2 with IC17H / IC17L-k0 (IC17H-DB402v2/IC17L-k0) (antibody, human IgG1, kappa)
heavy: B1 heavy with D408H
light: B1 light

molar binding ratio [5]: 0.42
B4: antibody-half molecule B6 with IC17H / IC17L-k0 (IC17H-DB220v2.n.n/IC17L-k0) (antibody, human IgG1, kappa)
heavy: B1 heavy with E438K
light: B1 light

molar binding ratio [6]: 0.54
B5: antibody-half molecule B3 with IC17H / IC17L-k0 (IC17H-DB405v2/IC17L-k0) (antibody, human IgG1, kappa)
heavy: B1 heavy with D408T
light: B1 light

molar binding ratio [8]: 0.25
B7: antibody-half molecule B4 with IC17H / IC17L-k0 (IC17H-DB424v2/IC17L-k0) (antibody, human IgG1, kappa)
heavy: B1 heavy with E356N
light: B1 light

Kd [10]: 53 nM
B10: MRAH-DA430v2/MRAL-k0 + MRAH-DB430v2/MRAL-k0 (antibody, human IgG1, kappa)
heavy 1: B9 heavy 1 with N359L
heavy 2: B9 heavy 2 with N359L
light: not shown
notes: Mixture of the two antibody-half molecules, which form a non-covalent heterodimer when captured on antigen; also called A5 + B5
